The values that follow come from patent publication US20190178879A1.

By IC50 is commonly meant the point on the concentration scale where inhibition reaches its midpoint. A high value points to weaker potency.

Experiment [1] has as its target human CD45 on PBMCs (human) (UniProt P08575). In words: flow cytometry on human PBMCs, detected with anti-PEG/HL647 label.
For experiment [2], the target named is human CD3 cell surface antigen on PBMCs (human) (UniProt P07766). The experiment is described as above.
Chain of UniProt P07766 (P07766 23-207): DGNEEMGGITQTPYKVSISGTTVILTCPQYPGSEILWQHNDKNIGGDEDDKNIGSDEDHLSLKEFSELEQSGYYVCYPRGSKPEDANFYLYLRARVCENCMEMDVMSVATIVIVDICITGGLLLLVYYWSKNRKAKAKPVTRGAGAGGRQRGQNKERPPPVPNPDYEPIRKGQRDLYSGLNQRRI
The target in experiment [3] is anti-pHIS antibody (clone J099B12, Biolegend), fluorescently labeled with AlexaFluor 488. Kind of experiment: flow cytometry competition, inhibition format: soluble pHIS preincubated with anti-pHIS antibody before pHIS-conjugated particles. (In general: In flow cytometry, cells or beads pass a laser one at a time.)
Experiment [4] shares this target. In words: flow cytometry competition, release format: soluble pHIS added after anti-pHIS antibody was bound to pHIS-conjugated particles.
In experiment [5] the target is anti-pHIS/CD3 TAC (tetrameric antibody complex of anti-pHIS antibody and anti-CD3 antibody). Kind of experiment: cell-based or functional assay.
The target in experiment [6] is human CD3 cell surface antigen on PBMCs (human) (UniProt P07766). Kind of experiment: flow cytometry on human PBMCs, detected with rat anti-mouse PE.

Chain of UniProt P08575 (P08575 26-1306): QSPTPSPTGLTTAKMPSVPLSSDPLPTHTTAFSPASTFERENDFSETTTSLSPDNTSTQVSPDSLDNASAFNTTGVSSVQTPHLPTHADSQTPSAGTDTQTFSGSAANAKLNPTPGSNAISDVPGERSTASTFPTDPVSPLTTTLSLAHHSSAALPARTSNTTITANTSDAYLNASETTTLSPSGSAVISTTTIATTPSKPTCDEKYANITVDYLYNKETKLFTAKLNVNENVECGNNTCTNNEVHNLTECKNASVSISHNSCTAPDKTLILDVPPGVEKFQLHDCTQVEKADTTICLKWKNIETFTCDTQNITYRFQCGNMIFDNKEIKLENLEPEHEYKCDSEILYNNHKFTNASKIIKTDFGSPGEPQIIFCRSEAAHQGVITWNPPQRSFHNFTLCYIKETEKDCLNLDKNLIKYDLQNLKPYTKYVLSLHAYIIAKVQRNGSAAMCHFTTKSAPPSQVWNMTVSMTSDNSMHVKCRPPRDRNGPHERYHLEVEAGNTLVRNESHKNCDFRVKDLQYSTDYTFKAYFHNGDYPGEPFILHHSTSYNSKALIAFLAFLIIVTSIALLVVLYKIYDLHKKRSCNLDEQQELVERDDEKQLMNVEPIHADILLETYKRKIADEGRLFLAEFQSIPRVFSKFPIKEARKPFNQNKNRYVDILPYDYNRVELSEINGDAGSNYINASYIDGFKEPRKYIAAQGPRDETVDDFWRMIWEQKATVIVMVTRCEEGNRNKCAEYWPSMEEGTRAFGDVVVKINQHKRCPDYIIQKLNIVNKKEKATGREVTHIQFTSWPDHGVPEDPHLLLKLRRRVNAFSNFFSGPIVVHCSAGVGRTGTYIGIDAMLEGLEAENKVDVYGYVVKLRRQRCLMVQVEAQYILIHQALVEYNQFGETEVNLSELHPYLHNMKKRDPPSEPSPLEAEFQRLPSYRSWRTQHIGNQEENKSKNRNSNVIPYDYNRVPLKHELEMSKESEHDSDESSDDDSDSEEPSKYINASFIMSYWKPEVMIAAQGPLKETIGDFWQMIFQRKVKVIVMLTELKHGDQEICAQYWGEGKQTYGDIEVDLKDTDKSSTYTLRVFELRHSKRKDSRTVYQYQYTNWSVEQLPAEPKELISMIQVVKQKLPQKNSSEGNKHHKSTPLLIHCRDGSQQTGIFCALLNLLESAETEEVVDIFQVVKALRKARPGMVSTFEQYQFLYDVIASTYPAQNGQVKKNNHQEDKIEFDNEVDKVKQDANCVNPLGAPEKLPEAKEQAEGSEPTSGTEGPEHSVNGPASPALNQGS

The substance “CD45 antibody (clone MEM-28) PEGylated with 30 kDa PEG” registered a percent of cells with a positive signal in experiment [1] greater than 96%.
In turn, “CD3 antibody (clone UCHT1) PEGylated with 30 kDa PEG” came in with a percent of cells with a positive signal in experiment [2] of 83.4%.
“soluble pHIS (polyhistidine) peptide, 0.84 kDa” registered a half-inhibitory concentration (IC50) in experiment [3] of 1.9 µM. For the same substance, the IC50 in experiment [4] came out at 237 µM. In experiment [5], this substance came in with a % Rel (release efficiency), average, n = 2 of 69.3% and a particle release efficiency of 72%.
CD3 antibody (clone UCHT1) came in with a percent of lymphocytes with a CD3+ signal in experiment [6] of 87.8%.
